Reference: PMC4703881

Biological target: wild-type T7 DNA polymerase (gp5 with E. coli thioredoxin) (bacteriophage T7 | E. coli) (UniProt P00581)
Sequence (P00581 whole entry, chain 1 of 2): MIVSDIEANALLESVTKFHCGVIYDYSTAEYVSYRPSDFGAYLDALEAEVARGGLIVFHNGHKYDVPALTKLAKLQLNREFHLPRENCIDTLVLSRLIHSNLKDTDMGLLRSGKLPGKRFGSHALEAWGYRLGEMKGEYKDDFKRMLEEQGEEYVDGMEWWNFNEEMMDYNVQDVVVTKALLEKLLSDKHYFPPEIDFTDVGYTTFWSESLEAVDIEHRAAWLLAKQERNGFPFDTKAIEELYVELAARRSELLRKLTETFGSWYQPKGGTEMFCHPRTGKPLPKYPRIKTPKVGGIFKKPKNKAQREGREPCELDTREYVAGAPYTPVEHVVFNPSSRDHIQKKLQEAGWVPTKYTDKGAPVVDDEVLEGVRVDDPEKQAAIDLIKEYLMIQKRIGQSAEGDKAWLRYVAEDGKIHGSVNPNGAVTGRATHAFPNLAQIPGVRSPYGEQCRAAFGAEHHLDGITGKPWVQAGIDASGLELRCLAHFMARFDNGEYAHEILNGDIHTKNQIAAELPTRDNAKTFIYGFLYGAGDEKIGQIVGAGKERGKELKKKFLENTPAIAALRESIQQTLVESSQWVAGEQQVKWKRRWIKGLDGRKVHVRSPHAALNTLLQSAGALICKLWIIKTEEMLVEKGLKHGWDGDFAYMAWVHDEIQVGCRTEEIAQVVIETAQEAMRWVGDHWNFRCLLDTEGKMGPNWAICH
Sequence (P0AA25 whole entry, chain 2 of 2, further chain): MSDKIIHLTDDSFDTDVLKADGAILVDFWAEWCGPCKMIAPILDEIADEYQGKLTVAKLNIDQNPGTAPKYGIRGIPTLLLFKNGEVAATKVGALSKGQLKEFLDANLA

Chain of wild-type T7 helicase (gp4) (P03692 whole entry): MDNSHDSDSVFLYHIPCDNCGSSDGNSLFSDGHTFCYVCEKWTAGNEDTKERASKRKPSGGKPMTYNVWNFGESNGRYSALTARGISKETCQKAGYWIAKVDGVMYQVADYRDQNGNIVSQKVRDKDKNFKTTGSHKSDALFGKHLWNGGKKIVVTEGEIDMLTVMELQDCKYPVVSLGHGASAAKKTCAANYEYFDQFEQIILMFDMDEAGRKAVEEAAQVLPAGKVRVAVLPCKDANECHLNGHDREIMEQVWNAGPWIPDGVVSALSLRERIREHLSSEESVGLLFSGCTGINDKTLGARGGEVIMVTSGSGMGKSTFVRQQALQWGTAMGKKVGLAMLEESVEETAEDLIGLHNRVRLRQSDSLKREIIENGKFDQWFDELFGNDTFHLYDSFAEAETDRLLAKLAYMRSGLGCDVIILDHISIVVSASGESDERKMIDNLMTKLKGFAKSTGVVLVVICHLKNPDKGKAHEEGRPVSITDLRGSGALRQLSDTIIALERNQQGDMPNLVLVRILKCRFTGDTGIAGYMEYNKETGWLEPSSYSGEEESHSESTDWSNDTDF

fraction of single-molecule traces with continued leading-strand synthesis at high rate past a leading-strand CPD lesion, wt DNAP with wt helicase, 6 pN, 0.5 mM dNTP: 28 % of traces
Substance: wild-type T7 helicase (gp4) (from UniProt P03692 1-566) (enzyme)
